Test results as given in patent US20120172295A1 (INDIANA UNIVERSITY RESEARCH AND TECHNOLOGY, published 2012).
“And” between values parts separate entries of the source, which are not always exact repeats. Equal entries are not always repeated. Where two headings read alike, the source gives them in different places. Starred links: 1 amine or outer side, 2 acyl side, 3 side chain; linkers in the order of their positions; H or OH if unused. Positions of bridges follow the written chain, without caps; N, C: chain ends. Non-standard residues stand in square brackets, D forms with d. Groups on a side chain read outwards from the residue. No end group written: not given here. *: point of attachment. γGlu = O=C(O)[C@H](CCC(=O)[*:2])N[*:1]; Palmitoyl = CCCCCCCCCCCCCCCC(=O)*; Myristoyl = CCCCCCCCCCCCCC(=O)*; DMIA = not defined here; Aib = CC(C)(N)C(=O)O; Ahx = NCCCCCC(=O)O

T1: GIP receptor (UniProt P48546 22-466)
T1 sequence (looked up): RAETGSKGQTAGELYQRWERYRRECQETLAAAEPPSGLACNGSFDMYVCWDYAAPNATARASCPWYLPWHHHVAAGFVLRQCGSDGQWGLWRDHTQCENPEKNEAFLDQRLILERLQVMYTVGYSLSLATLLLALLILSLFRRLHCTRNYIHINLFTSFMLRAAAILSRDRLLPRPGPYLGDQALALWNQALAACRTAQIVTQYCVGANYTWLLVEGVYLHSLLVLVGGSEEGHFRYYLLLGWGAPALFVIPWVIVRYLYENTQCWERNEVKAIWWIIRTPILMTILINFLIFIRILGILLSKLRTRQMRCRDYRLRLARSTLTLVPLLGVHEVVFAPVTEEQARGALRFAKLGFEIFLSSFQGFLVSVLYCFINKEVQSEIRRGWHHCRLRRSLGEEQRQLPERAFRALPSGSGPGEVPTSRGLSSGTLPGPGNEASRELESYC


Experiments:
Assay in all cases: cell-based or functional assay
glucagon receptor [1] = biological target: T2, glucagon receptor (UniProt P47871 26-477, limits assumed)
GLP-1 receptor [2] = biological target: T3, GLP-1 receptor (UniProt P43220 24-463, limits assumed)
glucagon receptor [3] = biological target: T2, glucagon receptor; remark: listed apart in the source
GLP-1 receptor [4] = biological target: T3, GLP-1 receptor; remark: listed apart in the source
glucagon receptor [5] = biological target: T2, glucagon receptor; remark: listed apart in the source
GLP-1 receptor [6] = biological target: T3, GLP-1 receptor; remark: listed apart in the source
GIP receptor = biological target: T1, GIP receptor

T2 sequence (P47871 26-477 limits assumed): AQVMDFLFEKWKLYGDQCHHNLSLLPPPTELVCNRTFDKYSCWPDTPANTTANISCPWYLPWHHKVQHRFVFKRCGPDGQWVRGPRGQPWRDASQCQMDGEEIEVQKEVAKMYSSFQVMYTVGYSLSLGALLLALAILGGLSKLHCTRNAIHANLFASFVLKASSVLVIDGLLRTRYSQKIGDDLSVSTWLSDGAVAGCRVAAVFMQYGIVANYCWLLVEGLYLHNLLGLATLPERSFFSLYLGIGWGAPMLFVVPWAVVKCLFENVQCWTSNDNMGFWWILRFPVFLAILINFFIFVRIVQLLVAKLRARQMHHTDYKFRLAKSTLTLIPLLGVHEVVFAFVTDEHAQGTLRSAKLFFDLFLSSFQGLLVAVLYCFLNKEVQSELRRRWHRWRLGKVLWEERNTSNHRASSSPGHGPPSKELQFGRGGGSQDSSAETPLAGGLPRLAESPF

Binder	EC50 (glucagon receptor [1])	EC50 (GLP-1 receptor [2])	also measured
XSQGTFTSDYSKYLDERRAKDFVQWLMNK (DMIA at 1; E16/K20 lactam; Lys 29 with C16 acyl via γ-Glu-γ-Glu) [DMIA1, E16/K20 lactam, Lys29 γE-γE-C16 (SEQ ID NO: 654)]	25 pM	–	–
H[dS]QGTFTSDK([γGlu-Palmitoyl])SKYLDEQAAKEFIAWLMNT [Chi-2, d-Ser2, Lys10 γE-C16 (SEQ ID NO: 643)]	11 pM	1.4 pM	–
[DMIA]SQGTFTSDK([γGlu-Palmitoyl])SKYLDERRAKDFVQWLMNT (lactam 16-20; reading uncertain) [DMIA1, E16/K20 lactam, Lys10 γE-C16 (SEQ ID NO: 651)]	–	6 pM	–
H[Aib]QGTFTSDK([γGlu-Palmitoyl])SKYLDEQAAKEFIAWLMNT-NH2 (N-terminus assumed; SMILES CCCCCCCCCCCCCCCC(=O)N[C@@H](CCC(=O)NCCCC[C@H](NC(=O)[C@H](CC(=O)O)NC(=O)[C@H](CO)NC(=O)[C@@H](NC(=O)[C@H](Cc1ccccc1)NC(=O)[C@@H](NC(=O)CNC(=O)[C@H](CCC(N)=O)NC(=O)C(C)(C)NC(=O)[C@@H](N)Cc1c[nH]cn1)[C@@H](C)O)[C@@H](C)O)C(=O)N[C@@H](CO)C(=O)N[C@@H](CCCCN)C(=O)N[C@@H](Cc1ccc(O)cc1)C(=O)N[C@@H](CC(C)C)C(=O)N[C@@H](CC(=O)O)C(=O)N[C@@H](CCC(=O)O)C(=O)N[C@@H](CCC(N)=O)C(=O)N[C@@H](C)C(=O)N[C@@H](C)C(=O)N[C@@H](CCCCN)C(=O)N[C@@H](CCC(=O)O)C(=O)N[C@@H](Cc1ccccc1)C(=O)N[C@H](C(=O)N[C@@H](C)C(=O)N[C@@H](Cc1c[nH]c2ccccc12)C(=O)N[C@@H](CC(C)C)C(=O)N[C@@H](CCSC)C(=O)N[C@@H](CC(N)=O)C(=O)N[C@H](C(N)=O)[C@@H](C)O)[C@@H](C)CC)C(=O)O) [Chi-2, AIB2, Lys10 γE-C16 (SEQ ID NO: 645)]	25 pM	1.4 pM	–
H[Aib]QGTFTSDK([γGlu-γGlu-Palmitoyl])SKYLDEQAAKEFIAWLMNT-NH2 (N-terminus assumed; SMILES CCCCCCCCCCCCCCCC(=O)N[C@@H](CCC(=O)N[C@@H](CCC(=O)NCCCC[C@H](NC(=O)[C@H](CC(=O)O)NC(=O)[C@H](CO)NC(=O)[C@@H](NC(=O)[C@H](Cc1ccccc1)NC(=O)[C@@H](NC(=O)CNC(=O)[C@H](CCC(N)=O)NC(=O)C(C)(C)NC(=O)[C@@H](N)Cc1c[nH]cn1)[C@@H](C)O)[C@@H](C)O)C(=O)N[C@@H](CO)C(=O)N[C@@H](CCCCN)C(=O)N[C@@H](Cc1ccc(O)cc1)C(=O)N[C@@H](CC(C)C)C(=O)N[C@@H](CC(=O)O)C(=O)N[C@@H](CCC(=O)O)C(=O)N[C@@H](CCC(N)=O)C(=O)N[C@@H](C)C(=O)N[C@@H](C)C(=O)N[C@@H](CCCCN)C(=O)N[C@@H](CCC(=O)O)C(=O)N[C@@H](Cc1ccccc1)C(=O)N[C@H](C(=O)N[C@@H](C)C(=O)N[C@@H](Cc1c[nH]c2ccccc12)C(=O)N[C@@H](CC(C)C)C(=O)N[C@@H](CCSC)C(=O)N[C@@H](CC(N)=O)C(=O)N[C@H](C(N)=O)[C@@H](C)O)[C@@H](C)CC)C(=O)O)C(=O)O) [Chi-2, AIB2, Lys10 γE-γE-C16 (SEQ ID NO: 646)]	–	1.8 pM	–
H[Aib]QGTFTSDK([Ahx-Palmitoyl])SKYLD[Aib]RRAQDFVQWLMNT-NH2 [Peptide 85 (SEQ ID NO: 567)]	–	–	EC50 (glucagon receptor [3]): 10 pM; EC50 (GLP-1 receptor [4]): 5 pM
H[Aib]EGTFTSDK([γGlu-γGlu-Palmitoyl])SKYLDEQAAKEFIAWLMNT [Chi-2, AIB2, E3, Lys10 γE-γE-C16 (SEQ ID NO: 648)]	2920 pM	4 pM	–
H[Aib]QGTFTSDK([γGlu-γGlu-Myristoyl])SKYLD[Aib]RRAQDFVC(PEG 40 kDa)WLMNT-NH2 [Peptide 78* (SEQ ID NO: 571)]	–	–	EC50 (glucagon receptor [3]): 319 pM; EC50 (GLP-1 receptor [4]): 103 pM
H[Aib]QGTFTSDK(Myristoyl)SKYLD[Aib]RRAQDFVC(PEG 40 kDa)WLMNT-NH2 [Peptide 77* (SEQ ID NO: 570)]	–	–	EC50 (glucagon receptor [3]): 21900 pM; EC50 (GLP-1 receptor [4]): 1460 pM
H[Aib]QGTFISDK([γGlu-Palmitoyl])SKYLDEQAAKEFIAWLMNT-NH2 (N-terminus assumed; SMILES CCCCCCCCCCCCCCCC(=O)N[C@@H](CCC(=O)NCCCC[C@H](NC(=O)[C@H](CC(=O)O)NC(=O)[C@H](CO)NC(=O)[C@@H](NC(=O)[C@H](Cc1ccccc1)NC(=O)[C@@H](NC(=O)CNC(=O)[C@H](CCC(N)=O)NC(=O)C(C)(C)NC(=O)[C@@H](N)Cc1c[nH]cn1)[C@@H](C)O)[C@@H](C)CC)C(=O)N[C@@H](CO)C(=O)N[C@@H](CCCCN)C(=O)N[C@@H](Cc1ccc(O)cc1)C(=O)N[C@@H](CC(C)C)C(=O)N[C@@H](CC(=O)O)C(=O)N[C@@H](CCC(=O)O)C(=O)N[C@@H](CCC(N)=O)C(=O)N[C@@H](C)C(=O)N[C@@H](C)C(=O)N[C@@H](CCCCN)C(=O)N[C@@H](CCC(=O)O)C(=O)N[C@@H](Cc1ccccc1)C(=O)N[C@H](C(=O)N[C@@H](C)C(=O)N[C@@H](Cc1c[nH]c2ccccc12)C(=O)N[C@@H](CC(C)C)C(=O)N[C@@H](CCSC)C(=O)N[C@@H](CC(N)=O)C(=O)N[C@H](C(N)=O)[C@@H](C)O)[C@@H](C)CC)C(=O)O) [Chi-2, AIB2, I7, Lys10 γE-C16 (SEQ ID NO: 649)]	–	24 pM and 44 pM	–
H[Aib]QGTFTSDYSKYLD[Aib]QAAKEFIC(PEG 40 kDa)WLMNGGPSSGAPPPSK(Myristoyl)-NH2 [mt-351]	–	–	% Relative activity (glucagon receptor [5]): 10.7%; EC50 (glucagon receptor [5]): 196 pM
[DMIA]SQGTFTSDK([γGlu-γGlu-Palmitoyl])SKYLDERRAKDFVQWLMNT (lactam 16-20; reading uncertain) [DMIA1, E16/K20 lactam, Lys10 γE-γE-C16 (SEQ ID NO: 652)]	–	4 pM	–
H[Aib]QGTFTSDK([Ala-Ala-Myristoyl])SKYLD[Aib]RRAQDFVC(PEG 40 kDa)WLMNT-NH2 [Peptide 81* (SEQ ID NO: 573)]	–	–	EC50 (glucagon receptor [3]): 597 pM; EC50 (GLP-1 receptor [4]): 271 pM
H[Aib]QGTFTSDK([Pro-Pro-Palmitoyl])SKYLD[Aib]RRAQDFVQWLMNT-NH2 [Peptide 87 (SEQ ID NO: 569)]	–	–	EC50 (glucagon receptor [3]): 17 pM; EC50 (GLP-1 receptor [4]): 9 pM
H[dS]QGTFTSDK([γGlu-γGlu-Palmitoyl])SKYLDEQAAKEFIAWLMNT [Chi-2, d-Ser2, Lys10 γE-γE-C16 (SEQ ID NO: 644)]	8 pM	3 pM	–
H[Aib]EGTFTSDK(Palmitoyl)SKYLDEQAAKEFIAWLMNT-NH2 (N-terminus assumed; SMILES CCCCCCCCCCCCCCCC(=O)NCCCC[C@H](NC(=O)[C@H](CC(=O)O)NC(=O)[C@H](CO)NC(=O)[C@@H](NC(=O)[C@H](Cc1ccccc1)NC(=O)[C@@H](NC(=O)CNC(=O)[C@H](CCC(=O)O)NC(=O)C(C)(C)NC(=O)[C@@H](N)Cc1c[nH]cn1)[C@@H](C)O)[C@@H](C)O)C(=O)N[C@@H](CO)C(=O)N[C@@H](CCCCN)C(=O)N[C@@H](Cc1ccc(O)cc1)C(=O)N[C@@H](CC(C)C)C(=O)N[C@@H](CC(=O)O)C(=O)N[C@@H](CCC(=O)O)C(=O)N[C@@H](CCC(N)=O)C(=O)N[C@@H](C)C(=O)N[C@@H](C)C(=O)N[C@@H](CCCCN)C(=O)N[C@@H](CCC(=O)O)C(=O)N[C@@H](Cc1ccccc1)C(=O)N[C@H](C(=O)N[C@@H](C)C(=O)N[C@@H](Cc1c[nH]c2ccccc12)C(=O)N[C@@H](CC(C)C)C(=O)N[C@@H](CCSC)C(=O)N[C@@H](CC(N)=O)C(=O)N[C@H](C(N)=O)[C@@H](C)O)[C@@H](C)CC) [Chi-2, AIB2, E3, Lys10 C16 no spacer (SEQ ID NO: 647)]	46100 pM	5 pM	–
H[Aib]QGTFISDK([γGlu-γGlu-Palmitoyl])SKYLDEQAAKEFIAWLMNT-NH2 (N-terminus assumed; SMILES CCCCCCCCCCCCCCCC(=O)N[C@@H](CCC(=O)N[C@@H](CCC(=O)NCCCC[C@H](NC(=O)[C@H](CC(=O)O)NC(=O)[C@H](CO)NC(=O)[C@@H](NC(=O)[C@H](Cc1ccccc1)NC(=O)[C@@H](NC(=O)CNC(=O)[C@H](CCC(N)=O)NC(=O)C(C)(C)NC(=O)[C@@H](N)Cc1c[nH]cn1)[C@@H](C)O)[C@@H](C)CC)C(=O)N[C@@H](CO)C(=O)N[C@@H](CCCCN)C(=O)N[C@@H](Cc1ccc(O)cc1)C(=O)N[C@@H](CC(C)C)C(=O)N[C@@H](CC(=O)O)C(=O)N[C@@H](CCC(=O)O)C(=O)N[C@@H](CCC(N)=O)C(=O)N[C@@H](C)C(=O)N[C@@H](C)C(=O)N[C@@H](CCCCN)C(=O)N[C@@H](CCC(=O)O)C(=O)N[C@@H](Cc1ccccc1)C(=O)N[C@H](C(=O)N[C@@H](C)C(=O)N[C@@H](Cc1c[nH]c2ccccc12)C(=O)N[C@@H](CC(C)C)C(=O)N[C@@H](CCSC)C(=O)N[C@@H](CC(N)=O)C(=O)N[C@H](C(N)=O)[C@@H](C)O)[C@@H](C)CC)C(=O)O)C(=O)O) [Chi-2, AIB2, I7, Lys10 γE-γE-C16 (SEQ ID NO: 650)]	7 pM	10 pM	–
H[Aib]QGTFTSDYSKYLDEQAAKEFIC(PEG 40 kDa)WLMNGGPSSGAPPPSK-NH2 [mt-350]	–	–	% Relative activity (GLP-1 receptor [6]): 58.9%; EC50 (GLP-1 receptor [6]): 10.7 pM; % Relative activity (GIP receptor): 0%; EC50 (GIP receptor): 77700 pM
